Laboratory results from the RNAGym collection of RNA variant scans (doi:10.7554/elife.80360).

B1: Hairpin Ribozyme (parent)
chain: GUCCUCUUUCACGUGCGCGUGAAAGAGAGAAGUGAACCAGAGAAACACACGUUGUGGUAUAUUACCUGGUA

Variants of: B1
Experiment: self-cleavage, relative activity (ratio to wild type); higher = more cleavage; co-transcriptional

Row | Variant | self-cleavage
1 | G21A A43G | 0.127
2 | G21C A43U | 0.0826
3 | G21C G27A | 0.186
4 | U20G A35C | 0.976
5 | A22G A41G | 0.811
6 | G21U G69U | 0.211
7 | G21U G69C | 0.293
8 | G21U G69A | 0.374
9 | U20G G27U | 0.154
10 | U20G U70C | 0.783
11 | U20G U70A | 1.07
12 | G21A G34U | 1.08
13 | A22C U70G | 0.763
14 | U20A U60C | 0.995
15 | U20G C50U | 0.42
16 | U20G C50A | 0.246
17 | U20C G34C | 1.45
18 | U20G A24C | 0.789
19 | A22G G69C | 0.209
20 | G21C U58G | 0.647
21 | U20G A39G | 0.27

Row | Variant | self-cleavage
22 | G21C C46G | 0.162
23 | U20C A44C | 0.155
24 | U20C A26C | 0.329
25 | A22G A31U | 0.226
26 | G21U A44U | 0.165
27 | G21C G29U | 0.316
28 | G21A C66G | 0.156
29 | U20C A43C | 0.0285
30 | A22C G40U | 0.19
31 | A22C G54C | 0.317
32 | A22G C38U | 0.589
33 | A22G C38G | 0.185
34 | U20C U67G | 0.336
35 | G21U U52C | 0.764
36 | G21U U52A | 0.806
37 | G21A G27U | 0.227
38 | U20G A64U | 0.141
39 | U20G A64C | 0.184
40 | G21A G57A | 0.192
41 | U20C A49U | 0.148
42 | U20G G25U | 0.64

Row | Variant | self-cleavage
43 | G21A U63G | 0.118
44 | G21A U63C | 0.155
45 | G21U A35U | 0.626
46 | G21U A35C | 0.841
47 | U20G C46U | 0.0821
48 | G21C G68U | 0.289
49 | A22C G27U | 0.411
50 | G21C C50G | 0.278
51 | G21C A26U | 0.57
52 | G21A G68C | 0.15
53 | U20C A24G | 0.758
54 | G21C G69A | 0.419
55 | U20A G57C | 0.215
56 | U20A G57A | 0.204
57 | G21A A64C | 0.207
58 | U20A G51C | 0.846
59 | A22C A49C | 0.264
60 | A22C G32C | 0.106
61 | A22C G32A | 0.178
62 | A22C G32U | 0.107
63 | G21U C46U | 0.128

Row | Variant | self-cleavage
64 | G21U C46A | 0.0942
65 | A22C C46U | 0.141
66 | A22C C46G | 0.187
67 | G21A A22G | 0.728
68 | A22G U33A | 0.115
69 | A22G U33C | 0.192
70 | G21U G32U | 0.1
71 | A22G G40A | 0.272
72 | A22G G40C | 0.146
73 | U20A G56A | 0.108
74 | U20A G56C | 0.145
75 | G21U G57A | 0.148
76 | G21U G57U | 0.224
77 | G21C A23U | 0.5
78 | A22C G69A | 0.448
79 | A22C G69U | 0.152
80 | U20C A59C | 0.185
81 | A22G A59C | 0.122
82 | U20A G68U | 0.297
83 | U20A G68A | 0.332
